{"source": "paper PMC3843708", "about": "“Mutational Analysis of Sclerostin Shows Importance of the Flexible Loop and the Cystine-Knot for Wnt-Signaling Inhibition” (PLoS ONE, 2013)", "molecules": {"B1": {"name": "wildtype full-length murine Sclerostin (natural protein, UniProt Q99P68 24-211, looked up)", "chain": "QGWQAFRNDATEVIPGLGEYPEPPPENNQTMNRAENGGRPPHHPYDAKDVSEYSCRELHYTRFLTDGPCRSAKPVTELVCSGQCGPARLLPNAIGRVKWWRPNGPDFRCIPDRYRAQRVQLLCPGGAAPRSRKVRLVASCKCKRLTRFHNQSELKDFGPETARPQKGRKPRPGARGAKANQAELENAY", "modifications": "125I-iodinated (Chloramine T) where used as radioligand; biotinylated (EZ-Link Sulfo-NHS-LC-Biotin, molar ratio 1:1.5) in the pull-down"}, "B2": {"name": "Sclerostin C84AC142R (natural protein, murine, UniProt Q99P68 24-211, looked up)", "chain": "B1 chain with C84A, C142R", "modifications": "biotinylated (EZ-Link Sulfo-NHS-LC-Biotin, molar ratio 1:1.5) in the pull-down"}, "B3": {"name": "Sclerostin N92A (natural protein, murine, UniProt Q99P68 24-211, looked up)", "chain": "B1 chain with N92A"}, "B4": {"name": "Sclerostin Alaloop (natural protein, murine, UniProt Q99P68 24-211, looked up)", "chain": "B1 chain with L90S, N92G, I94S, R96A, V97R, K98S, W99G, W100S, R101A, N103A", "modifications": "125I-iodinated (Chloramine T) where used as radioligand"}, "B5": {"name": "Sclerostin I94A (natural protein, murine, UniProt Q99P68 24-211, looked up)", "chain": "B1 chain with I94A"}, "B6": {"name": "Sclerostin ΔLoop (natural protein, murine, UniProt Q99P68 24-211, looked up)", "chain": "QGWQAFRNDATEVIPGLGEYPEPPPENNQTMNRAENGGRPPHHPYDAKDVSEYSCRELHYTRFLTDGPCRSAKPVTELVCSGQCGPARLGSGPDFRCIPDRYRAQRVQLLCPGGAAPRSRKVRLVASCKCKRLTRFHNQSELKDFGPETARPQKGRKPRPGARGAKANQAELENAY", "modifications": "125I-iodinated (Chloramine T) where used as radioligand; biotinylated (EZ-Link Sulfo-NHS-LC-Biotin, molar ratio 1:1.5) in the pull-down"}}, "key": {"[1]": {"target": "LRP6 second propeller domain (Homo sapiens) (UniProt O75581)", "conditions": "cited from earlier work"}, "[2]": {"target": "LRP6 first propeller domain (Homo sapiens) (UniProt O75581)", "conditions": "cited from earlier work"}, "LRP6 E1E2 (Homo sapiens)": {"target": "LRP6 E1E2 (Homo sapiens) (UniProt O75581)", "conditions": "cited from earlier work"}, "LRP6 E3E4 (Homo sapiens)": {"target": "LRP6 E3E4 (Homo sapiens) (UniProt O75581)", "sequence (O75581 631-1246)": "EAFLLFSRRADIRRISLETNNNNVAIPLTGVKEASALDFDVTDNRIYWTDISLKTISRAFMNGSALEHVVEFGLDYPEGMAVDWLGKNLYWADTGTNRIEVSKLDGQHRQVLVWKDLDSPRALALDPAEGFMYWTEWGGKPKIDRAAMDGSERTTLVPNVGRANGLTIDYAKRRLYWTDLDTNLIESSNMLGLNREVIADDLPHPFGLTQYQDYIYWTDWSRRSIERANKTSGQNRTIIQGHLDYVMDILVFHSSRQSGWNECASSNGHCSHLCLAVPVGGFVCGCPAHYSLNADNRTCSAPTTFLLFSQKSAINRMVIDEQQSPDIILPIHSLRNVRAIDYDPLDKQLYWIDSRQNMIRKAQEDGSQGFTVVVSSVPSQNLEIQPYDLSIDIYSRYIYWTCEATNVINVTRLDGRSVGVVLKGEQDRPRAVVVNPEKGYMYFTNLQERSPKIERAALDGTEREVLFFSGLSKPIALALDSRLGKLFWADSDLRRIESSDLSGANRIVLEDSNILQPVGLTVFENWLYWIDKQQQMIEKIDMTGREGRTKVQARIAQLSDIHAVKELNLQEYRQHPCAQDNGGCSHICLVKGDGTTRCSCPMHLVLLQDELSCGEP", "conditions": "cited from earlier work"}, "human LRP6": {"target": "human LRP6 (human, UniProt O75581 20-1613)", "assay": "cell-based or functional assay"}, "[3]": {"target": "T1, human LRP6 protein fragment comprising propeller domains E1 and E2 (LRP6E1E2) (human, UniProt O75581 20-630)", "T1 sequence (looked up)": "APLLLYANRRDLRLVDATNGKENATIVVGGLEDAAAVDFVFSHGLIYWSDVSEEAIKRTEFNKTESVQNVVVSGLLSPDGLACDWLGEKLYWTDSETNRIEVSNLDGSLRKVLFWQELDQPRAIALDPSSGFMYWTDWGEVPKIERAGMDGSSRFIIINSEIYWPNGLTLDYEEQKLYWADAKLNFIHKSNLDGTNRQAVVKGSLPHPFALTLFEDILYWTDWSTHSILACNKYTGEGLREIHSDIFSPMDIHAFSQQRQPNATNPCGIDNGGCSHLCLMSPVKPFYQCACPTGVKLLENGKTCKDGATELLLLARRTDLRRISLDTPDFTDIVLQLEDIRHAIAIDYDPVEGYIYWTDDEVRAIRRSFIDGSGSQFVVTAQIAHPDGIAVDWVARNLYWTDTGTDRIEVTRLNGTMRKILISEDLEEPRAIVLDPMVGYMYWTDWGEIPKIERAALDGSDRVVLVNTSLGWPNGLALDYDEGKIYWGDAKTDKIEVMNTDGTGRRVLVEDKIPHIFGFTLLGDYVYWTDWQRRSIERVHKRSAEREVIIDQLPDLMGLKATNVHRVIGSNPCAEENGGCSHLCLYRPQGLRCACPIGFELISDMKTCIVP", "assay": "cell-based or functional assay"}}, "note": "Where a chain is given by its changes, count along the chain named. In names and notes the source's numbering stands."}
{"molecule": "Sclerostin (from UniProt Q9BQB4)", "values": [{"measurement": "Kd", "setting": "[1]", "value": 1300, "unit": "nM"}, {"measurement": "Kd", "setting": "[2]", "value": 60, "unit": "nM"}]}
{"molecule": "Dkk1 (from UniProt O94907)", "values": [{"measurement": "Kd", "setting": "LRP6 E1E2 (Homo sapiens)", "value": 60, "unit": "nM"}, {"measurement": "Kd", "setting": "LRP6 E3E4 (Homo sapiens)", "value": 60, "unit": "nM"}]}
{"molecule": "B1", "values": [{"measurement": "IC50 of inhibition of Wnt1-driven SuperTOPFlash luciferase reporter, HEK-293TSA M50 cells transfected with mWnt1", "setting": "human LRP6", "value": 10, "unit": "nM"}]}
{"molecule": "B2", "values": [{"measurement": "fold decrease against wildtype of the efficiency to inhibit Wnt1-driven SuperTOPFlash luciferase reporter (supernatants of HEK Freestyle cells expressing the variant)", "setting": "[3]", "value": 10, "unit": "fold"}]}
{"molecule": "B3", "values": [{"measurement": "IC50 of inhibition of Wnt1-driven SuperTOPFlash luciferase reporter, HEK-293TSA M50 cells transfected with mWnt1", "setting": "human LRP6", "value": 196, "unit": "nM"}]}
{"molecule": "B4", "values": [{"measurement": "IC50 of inhibition of Wnt1-driven SuperTOPFlash luciferase reporter, HEK-293TSA M50 cells transfected with mWnt1", "setting": "human LRP6", "value": 831, "unit": "nM"}, {"measurement": "IC50 of inhibition of Wnt3a-driven SuperTOPFlash luciferase reporter, HEK-293TSA M50 cells with 1.5 nM mWnt3a", "setting": "human LRP6", "value": 1110, "unit": "nM"}]}
{"molecule": "B5", "values": [{"measurement": "IC50 of inhibition of Wnt1-driven SuperTOPFlash luciferase reporter, HEK-293TSA M50 cells transfected with mWnt1", "setting": "human LRP6", "value": 26.9, "unit": "nM"}]}
{"molecule": "B6", "values": [{"measurement": "IC50 of inhibition of Wnt1-driven SuperTOPFlash luciferase reporter, HEK-293TSA M50 cells transfected with mWnt1", "setting": "human LRP6", "value": 806, "unit": "nM"}, {"measurement": "IC50 of inhibition of Wnt3a-driven SuperTOPFlash luciferase reporter, HEK-293TSA M50 cells with 1.5 nM mWnt3a", "setting": "human LRP6", "value": 655, "unit": "nM"}]}
